Source: patent publication US20200240995

Key:
[1] = biological target: Dual luciferase reporter (DLR) with N(ε)-acetyl-lysine at K529 of the Firefly enzyme
[2] = biological target: Dual luciferase reporter (DLR) with N(ε)-allyl-oxycarbonyl-lysine at K529 of the Firefly enzyme
[3] = biological target: Dual luciferase reporter (DLR) with N(ε)-crotonyl-lysine at K529 of the Firefly enzyme
[4] = biological target: Dual luciferase reporter (DLR) with N(ε)-tert.-butyl-oxycarbonyl-lysine at K529 of the Firefly enzyme
Dual luciferase reporter (DLR) with N(ε)-tert.-butyl-oxycarbonyl-lysine at K529 of the Firefly enzyme, sequence (chain, as listed by the source): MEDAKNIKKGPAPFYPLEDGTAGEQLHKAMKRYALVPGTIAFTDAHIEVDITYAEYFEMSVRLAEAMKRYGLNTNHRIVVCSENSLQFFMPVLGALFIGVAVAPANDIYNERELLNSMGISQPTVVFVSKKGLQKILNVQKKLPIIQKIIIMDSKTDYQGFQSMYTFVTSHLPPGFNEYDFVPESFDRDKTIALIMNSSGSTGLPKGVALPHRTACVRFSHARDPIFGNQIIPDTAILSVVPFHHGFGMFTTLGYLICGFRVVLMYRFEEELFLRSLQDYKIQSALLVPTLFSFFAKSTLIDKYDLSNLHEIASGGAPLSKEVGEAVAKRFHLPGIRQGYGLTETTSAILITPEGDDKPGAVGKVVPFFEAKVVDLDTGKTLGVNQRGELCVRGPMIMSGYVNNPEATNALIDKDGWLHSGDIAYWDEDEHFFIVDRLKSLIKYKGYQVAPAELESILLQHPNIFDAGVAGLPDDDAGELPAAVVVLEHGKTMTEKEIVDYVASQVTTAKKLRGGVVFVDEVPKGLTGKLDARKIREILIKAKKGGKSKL

Dual luciferase reporter (DLR) with N(ε)-acetyl-lysine at K529 of the Firefly enzyme, sequence (chain, as listed by the source): as above
Dual luciferase reporter (DLR) with N(ε)-crotonyl-lysine at K529 of the Firefly enzyme, sequence (chain, as listed by the source): as above
Dual luciferase reporter (DLR) with N(ε)-allyl-oxycarbonyl-lysine at K529 of the Firefly enzyme, sequence (chain, as listed by the source): as above

B1: Dealocase-1 (protein)
chain: KPRVLVLTGAGISAESGIRTFRAADGLWEEHRVEDVSTPEGFDRDPELVQAFWNAWRRQLQQPEIQPNAAHLALAKLQDALGDRFLLVTQNVDNLHERAGNTNVIHMHGELLKVRCSQSGQVLDWTGDVTPEDKCHCCQFPAPLRPHVVWFGEMPLGMDEIYMALSMADIFIAIGTSGHVYPAAGFVHEAKLHGAHTVELNLEPSQVGNEFAEKYYGPASQVVPEFVEKLLKGLKAGSIA
DLR activity [rel. to wild-type] (rel. to wild-type) [1]: 0.49 | DLR activity [rel. to wild-type] (rel. to wild-type) [2]: 10.8 | DLR activity [rel. to wild-type] (rel. to wild-type) [3]: 5.73 | DLR activity [rel. to wild-type] (rel. to wild-type) [4]: 2.88

B2: Debocylase-1 (protein)
chain: KPRVLVLTGAGISAESGIRTFRAADGLWEEHRVEDVATPEGFDRDPELVQAFYNARRRQLQQPEIQPNAAHLALAKLQDALGDRFLLVTQNVDNLHERAGNTNVIHMHGELLKVRCSQSGQVLDWTGDVTPEDKCHCCQFPAPLRPHLVWFGEMPLGMDEIYMALSMADIFIAIGTSGHVYPAAGFVHEAKLHGAHTVELNLEPSQVGNEFAEKYYGPASQVVPEFVEKLLKGLKAGSIA
DLR activity [rel. to wild-type] (rel. to wild-type) [1]: 1.25 | DLR activity [rel. to wild-type] (rel. to wild-type) [2]: 8.35 | DLR activity [rel. to wild-type] (rel. to wild-type) [3]: 2.9 | DLR activity [rel. to wild-type] (rel. to wild-type) [4]: 8.65

B3: Decrotonylase-1 (protein)
chain: KPRVLVLTGAGISAESGIRTFRAADGLWEEHRVEDVRTPEGFDRDPELVQAFGNATRRQLQQPEIQPNAAHLALAKLQDALGDRFLLVTQNRDNLHERAGNTNVIHMHGELLKVRCSQSGQVLDWTGDVTPEDKCHCCQFPAPLRPHLVWFGEMPLGMDEIYMALSMADIFIAIGTSGHVYPAAGFVHEAKLHGAHTVELNLEPSQVGNEFAEKYYGPASQVVPEFVEKLLKGLKAGSIA
DLR activity [rel. to wild-type] (rel. to wild-type) [1]: 0 | DLR activity [rel. to wild-type] (rel. to wild-type) [2]: 0.02 | DLR activity [rel. to wild-type] (rel. to wild-type) [3]: 0.1 | DLR activity [rel. to wild-type] (rel. to wild-type) [4]: 0.04

B4: Dealocase-3 (protein)
chain: KPRVLVLTGAGISAESGIRTFRAADGLWEEHRVEDVATPEGFDRDPELVQAFYNARRRQLQQPEIQPNAAHLALAKLQDALGDRFLLVTQNSDNLHERAGNTNVIHMHGELLKVRCSQSGQVLDWTGDVTPEDKCHCCQFPAPLRPHLVWFGEMPLGMDEIYMALSMADIFIAIGTSGHVYPAAGFVHEAKLHGAHTVELNLEPSQVGNEFAEKYYGPASQVVPEFVEKLLKGLKAGSIA
DLR activity [rel. to wild-type] (rel. to wild-type) [1]: 0.35 | DLR activity [rel. to wild-type] (rel. to wild-type) [2]: 6 | DLR activity [rel. to wild-type] (rel. to wild-type) [3]: 1 | DLR activity [rel. to wild-type] (rel. to wild-type) [4]: 0.65

B5: Dealocase-2 (protein)
chain: KPRVLVLTGAGISAESGIRTFRAADGLWEEHRVEDVGTPEGFDRDPELVQAFYNAGRRQLQQPEIQPNAAHLALAKLQDALGDRFLLVTQNVDNLHERAGNTNVIHMHGELLKVRCSQSGQVLDWTGDVTPEDKCHCCQFPAPLRPHVVWFGEMPLGMDEIYMALSMADIFIAIGTSGHVYPAAGFVHEAKLHGAHTVELNLEPSQVGNEFAEKYYGPASQVVPEFVEKLLKGLKAGSIA
DLR activity [rel. to wild-type] (rel. to wild-type) [1]: 1.19 | DLR activity [rel. to wild-type] (rel. to wild-type) [2]: 10.2 | DLR activity [rel. to wild-type] (rel. to wild-type) [3]: 2.11 | DLR activity [rel. to wild-type] (rel. to wild-type) [4]: 0.77
